Consider 55 molecules from US20100279930A1 (published 2010).

The labels stand for the following.
B1: 4055549 (peptide)
chain: APLEPVYPGDNATPEQLAQYAADLRKYINLLTRPRY
B2: 4055292 (peptide)
chain: KPLEPVYPGDNATPEQMAQYAADLRRYINMLTRPRY
B3: 4055405 (peptide)
chain: APPEPVYPGDDATPEQMAEYVADLRRYINMLTRPRY
B4: 4055406 (peptide)
chain: APLEPVYPGDDATPEQMAEYAADLRRYINMLTRPRY
B5: 4055247 (peptide)
chain: APLEPVYPGDDATPQQMAQYYASLRHYLNLVTRPRY
B6: 4055245 (peptide)
chain: APLEPVYPGDNATPEQMAQYYASLRHYLNLVTRPRY
B7: 7274 (peptide)
chain: AAPLEPTYPGDDATPQQMARYAAELRRYINFLTRPRY
B8: 7259 (peptide)
chain: PAPLEPTYPGDDATPQQMARYAAELRRYINFLTRPRY
B9: 7269 (peptide)
chain: PAPLEPTYPGDDATPQQMARYAAALRRYINILTRPRY
B10: 7270 (peptide)
chain: PAPLEPTYPGDDATPQQMAKYAAELRRYINILTRPRY
B11: 7271 (peptide)
chain: PAPLEPTYPGDDATPQQMARYAAELRRYINILTRPRY
B12: 7268 (peptide)
chain: PAPLEPTYPGDDATPQQMAKYAAALRRYINILTRPRY
B13: 7242 (peptide)
chain: APLEPVYPGDNATPEQMARYAAALRRYINMLTRPRY
B14: 4055524 (peptide)
chain: APLEPVYPGDNATPEQMAEYAADLRRYINMLTRPRY
B15: compound of SEQ ID NO:224 (Lys 19, code 4055291) (peptide)
peptide: APLEPVYPGDNATPEQMAKYAADLRRYINMLTRPRY
B16: 4055525 (peptide)
chain: APLEPVYPGDNATPEQMAHYAADLRRYINMLTRPRY
B17: 4055399 (peptide)
chain: APLEPVYPGDNATPEQMAQYAADLRRYINLLTRPRY
B18: 4055195 (peptide)
chain: APLEPVYPGDDATPEQMAQYAAELRRYINMLTRPRY
B19: 7248 (peptide)
chain: PAPLEPKYPGDNATPEQMARYAAALRRYINMLTRPRY
B20: 7251 (peptide)
chain: PAPLEPTYPGDNATPEQMAKYAAELRRYINMLTRPRY
B21: 7253 (peptide)
chain: PAPLEPTYPGDNATPEQMAKYAAELRRYINFLTRPRY
B22: 7243 (peptide)
chain: PAPLEPVYPGDNATPEQMARYAAALRRYINKLTRPRY
B23: 7249 (peptide)
chain: PAPLEPTYPGDNATPEQMARYAAALRRYINMLTRPRY
B24: 7244 (peptide)
chain: PAPLEPVYPGDNATPEQIARYAAALRRYINKLTRPRY
B25: 4054990 (peptide)
chain: APLEPVYPGDNATPEQMAQYAADLNLRYINMLTRPRY
B26: 4057900 (peptide)
chain: PLEPHYPGDNATPEQMARYAAELRRYINKLTRPRY
B27: 4057898 (peptide)
chain: PLEPHYPGDDATPQQMARYAAELRRYINKLTRPRY
B28: 4057769 (peptide)
chain: PAPLEPVYPGDNATPEELARYAAELRRYINKLTRPRY
B29: 4057770 (peptide)
chain: PAPLEPVYPGDNASPEQMARYAAELRRYINKLTRPRY
B30: 4057899 (peptide)
chain: GAPLEPHYPGDDATPQQMARYAAELRRYINKLTRPRY
B31: 4057765 (peptide)
chain: AAPLEPHYPGDNATPEQMAKYAAELRRYINKLTRPRY
B32: 4058053 (peptide)
chain: YAPLEPEYPGDDATPQQMARYAAELRRYINKLTRPRY
B33: 4057902 (peptide)
chain: HAPLEPHYPGDNATPEQMARYAAELRRYINKLTRPRY
B34: 4058054 (peptide)
chain: YAPLEPHYPGDDATPQQMARYAAELRRYINKLTRPRY
B35: 4057897 (peptide)
chain: PAPLEPHYPGDDATPQQMARYAAELRRYINKLTRPRY
B36: 4057764 (peptide)
chain: APLEPHYPGDNATPEQMAKYAAELRRYINKLTRPRY
B37: 4058056 (peptide)
chain: APLEPHYPGDDATPQQMARYAAELRRYINLLTRPRY
B38: 4057754 (peptide)
chain: APLEPHYPGDNATPEQMAKYAAALRRYINKLTRPRY
B39: 4057745 (peptide)
chain: APLEPHYPGDNATPEQMAKYAADLRRYINKLTRPRF
B40: 4057755 (peptide)
chain: AAPLEPHYPGDNATPEQMAKYAAALRRYINKLTRPRY
B41: 4057762 (peptide)
chain: AAPLEPHYPGDNATPEQMAKYYSELRRYINKLTRPRY
B42: 4057753 (peptide)
chain: PAPLEPHYPGDNATPEQLAKYAADLRRYINKLTRPRY
B43: 4058052 (peptide)
chain: PAPLEPSYPGDNATPEQMAKYAAALRRYINLLTRPRY
B44: 4057879 (peptide)
chain: HAPLEPVYPGDNATPEQMAKYAADLRRYINKLTRPRY
B45: 4057763 (peptide)
chain: PAPLEPHYPGDNATPEQMAKYYSELRRYINKLTRPRY
B46: 4057758 (peptide)
chain: AAPLEPHYPGDNATPEQMAKYYSALRRYINKLTRPRY
B47: 4057752 (peptide)
chain: AAPLEPHYPGDNATPEQLAKYAADLRRYINKLTRPRY
B48: 4057746 (peptide)
chain: AAPLEPHYPGDNATPEQMAKYAADLRRYINKLTRPRF
B49: 4057747 (peptide)
chain: PAPLEPHYPGDNATPEQMAKYAADLRRYINKLTRPRF
B50: 4057781 (peptide)
chain: PAPLEPSYPGDNATPEQLAHYYSELRRYINKLTRPRY
B51: 4057782 (peptide)
chain: AAPLEPTYPGDNATPEQMAHYYSELRRYINKLTRPRY
B52: 4057789 (peptide)
chain: PAPLEPHYPGDDATPQQLAHYYSELRRYINKLTRPRY
B53: 4057783 (peptide)
chain: PAPLEPTYPGDNATPEQMAHYYSELRRYINKLTRPRY
B54: 4057779 (peptide)
chain: AAPLEPSYPGDNATPEQLAHYYSELRRYINKLTRPRY
B55: 4057784 (peptide)
chain: AAPLEPTYPGDNATPEQLAHYYSELRRYINKLTRPRY

One experiment deals with T1, human Y4 receptor (human, UniProt P50391 1-375). Nature of the experiment: 125I-PP displacement.
T1 sequence (P50391 whole entry): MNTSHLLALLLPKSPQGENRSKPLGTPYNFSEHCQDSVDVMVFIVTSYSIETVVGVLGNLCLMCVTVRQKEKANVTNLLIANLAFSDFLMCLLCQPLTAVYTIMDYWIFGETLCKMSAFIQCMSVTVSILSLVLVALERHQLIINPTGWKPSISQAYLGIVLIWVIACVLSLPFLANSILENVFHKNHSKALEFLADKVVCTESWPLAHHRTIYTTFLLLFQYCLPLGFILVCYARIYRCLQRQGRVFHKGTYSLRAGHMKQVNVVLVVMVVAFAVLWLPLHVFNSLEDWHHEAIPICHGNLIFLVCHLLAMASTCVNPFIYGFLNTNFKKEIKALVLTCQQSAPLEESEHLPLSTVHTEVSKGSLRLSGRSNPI
B1 displayed an IC50 of 0.2 nM.
B2 came in with an IC50 of 0.4 nM.
With B3, the IC50 is 0.24 nM.
The molecule B4 yielded a 50% inhibitory concentration (IC50) of 0.17 nM.
Molecule B5 yielded a half-inhibitory concentration (IC50) of 0.3 nM.
As for B6, the IC50 amounted to 0.5 nM.
On the same count and under the same terms, the figure for B7 is 0.107 nM; for B8 it is 0.075 nM.
B9: the half-inhibitory concentration (IC50) amounted to 0.187 nM.
For the molecule B10, the IC50 was determined as 0.171 nM.
Take B11: the IC50 is 0.22 nM.
B12 registered an IC50 of 0.127 nM.
Consider B13, for which the IC50 worked out at 0.14 nM.
For the molecule B14, the IC50 is 0.3 nM.
As to B15, the IC50 came to 0.32 nM.
For B16, the 50% inhibitory concentration (IC50) came to 0.11 nM.
Same read-out and setting: the figure for B17 is 0.28 nM.
Consider B18, for which the half-maximal inhibitory concentration (IC50) is 0.86 nM.
As for B19, the 50% inhibitory concentration (IC50) was determined as 0.131 nM.
Take B20: the half-inhibitory concentration (IC50) stood at 0.096 nM.
Turning to B21, the IC50 was found to be 0.095 nM.
As for B22, the half-maximal inhibitory concentration (IC50) amounted to 0.058 nM.
For B23, the IC50 was 0.089 nM.
Molecule B24 returned an IC50 of 0.106 nM.
The molecule B25 showed a half-inhibitory concentration (IC50) of 0.67 nM.

The next experiment addresses T1, human Y4 receptor. Description: 125I-PP displacement. The source holds these as a separate data set.
Molecule B26 had a half-maximal inhibitory concentration (IC50) of 0.09 nM.
Same read-out and setting: the same measure for B27: 0.063 nM; for B28: 0.117 nM.
With B29, the half-maximal inhibitory concentration (IC50) was found to be 0.081 nM.
On the same count and under the same terms, the figure for B30 is 0.064 nM; for B31 it is 0.075 nM; for B32 it is 0.042 nM.
The same measure, in the same setting: the figure for B33 is 0.064 nM; for B34 it is 0.137 nM.
Molecule B35 yielded an IC50 of 0.07 nM.
For the molecule B36, the IC50 is 0.094 nM.
As to B37, the IC50 came out at 0.1 nM.
Same read-out and setting: the same measure for B38: 0.156 nM; for B39: 0.086 nM.
Still for that read-out and setting: the figure for B40 is 0.145 nM; for B41 it is 0.167 nM; for B42 it is 0.07 nM.
Regarding B43, the IC50 stood at 0.085 nM.
B44 showed an IC50 of 0.134 nM.
Turning to B45, the IC50 came out at 0.174 nM.
On the same count and under the same terms, the figure for B46 is 0.19 nM; for B47 it is 0.071 nM; for B48 it is 0.072 nM.
Still for that read-out and setting: the figure for B49 is 0.066 nM.
The molecule B50 showed a half-inhibitory concentration (IC50) of 0.132 nM.
Consider B51, for which the 50% inhibitory concentration (IC50) was determined as 0.078 nM.
Molecule B52 gave an IC50 of 0.164 nM.
On to B53, for which the IC50 was determined as 0.154 nM.
Turning to B54, the half-inhibitory concentration (IC50) turned out to be 0.071 nM.
For the molecule B55, the IC50 was 0.102 nM.
